In patent publication US10118947B2, “Modulation of structured polypeptide specificity” (BICYCLE THERAPEUTICS LIMITED, priority 2013, dated 2018):

Each sequence was assayed against T1, human plasma Kallikrein (Homo sapiens, UniProt P03952) (assay: Phage selections against human plasma Kallikrein (abundance in selection output)). Conditions: Table 17; relative abundance in the total selection outputs.
T1 construct: purchased Stratech, UK
Format: binding
Procedure: Glycerol stocks of phage libraries were diluted to OD600=0.1 in 500 ml 2YT/chloramphenicol (30 μg/ml) cultures and phage were produced at 30° C. over night (15-16 hrs). Phage were purified and chemically modified as described in Heinis, et al., Nat Chem Biol 2009, 5 (7), 502-7 Biotinylated hPK (3 μg) (IHPKA, from human plasma, Innovative Research, Novi, Mich., USA) was incubated with 50 μl pre-washed magnetic streptavidin beads (Dynal, M-280 from Invitrogen, Paisley, UK) for 10 minutes at RT. Beads were washed 3 times prior to blocking with 0.5 ml washing buffer (10 mM Tris-Cl, pH 7.4, 150 mM NaCl, 10 mM MgCl2, 1 mM CaCl2) containing 1% BSA and 0.1% Tween 20 for 30 minutes at RT with rotation. […] Blocked beads were then mixed with the blocked chemically modified phage and incubated for 30 minutes on a rotating wheel at
RT. Beads were washed 8 times with washing buffer containing 0.1% Tween 20 and twice with washing buffer before incubation with 100 μl of 50 mM glycine, pH 2.2 for 5 minutes. Eluted phage were transferred to 50 μl of 1 M Tris-Cl, pH 8 for neutralization, incubated with 30 ml TG1 cells at OD600=0.4 for 90 minutes at 37° C. and the cells were plated on large 2YT/chloramphenicol plates. One or two additional rounds of panning were performed using the same procedures. In the second round of selection, neutravidin-coated magnetic beads were used to prevent the enrichment of streptavidin-specific peptides. The neutravidin beads were prepared by reacting 0.8 mg neutravidin (Pierce, Rockford, Ill., USA) with 0.5 ml tosyl-activated magnetic beads (Dynal, M-280 from Invitrogen, Paisley, UK) according to the supplier's instructions.
The WPAR (SEQ ID No. 19) motif identified from Example 1 was analysed in the context of the 06-34-03 peptide, in order to identify alternatives or improvements to the WPAR motif. A library was constructed where positions 1, 6, 7, 8, 9 &10 of 06-34-03 were fixed and positions 2, 3, 4 & 5 were randomised (see ‘Randomisation of peptide domains—Library construction’ in Methods above). Selections against human plasma Kallikrein were performed at a variety of stringencies (see Phage selections' in Methods above). All output sequences were identified and analysed for target binding (see ‘Randomisation of peptide domains—Assay of binding of individual clones’ in Methods above). Table 17 lists each unique sequence, its relative abundance in the selection output (frequency), and a rank number according to target binding strength.

T1 sequence (P03952 20-638): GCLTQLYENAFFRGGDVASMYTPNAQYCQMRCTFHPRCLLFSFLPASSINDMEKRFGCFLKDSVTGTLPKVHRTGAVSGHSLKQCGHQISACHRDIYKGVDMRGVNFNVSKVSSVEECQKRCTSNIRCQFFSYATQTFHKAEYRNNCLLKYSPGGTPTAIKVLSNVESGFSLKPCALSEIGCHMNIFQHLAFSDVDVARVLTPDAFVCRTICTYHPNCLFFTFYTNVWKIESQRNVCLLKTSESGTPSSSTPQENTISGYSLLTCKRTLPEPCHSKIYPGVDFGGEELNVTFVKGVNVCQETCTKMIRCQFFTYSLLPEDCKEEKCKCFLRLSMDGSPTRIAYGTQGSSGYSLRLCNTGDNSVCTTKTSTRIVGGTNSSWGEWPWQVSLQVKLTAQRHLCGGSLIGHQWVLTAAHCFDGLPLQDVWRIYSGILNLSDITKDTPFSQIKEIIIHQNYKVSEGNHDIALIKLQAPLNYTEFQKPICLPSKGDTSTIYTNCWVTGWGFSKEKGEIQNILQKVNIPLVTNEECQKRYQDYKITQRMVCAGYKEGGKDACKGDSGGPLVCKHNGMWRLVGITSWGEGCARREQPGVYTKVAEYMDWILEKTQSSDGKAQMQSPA

Question: CSFPFWCTHQDLC was tested. Which FREQUENCY did it give?
Answer: 1

Question: How did the FREQUENCY turn out when CSYPIRCTHQDLC was run?
Answer: 2

Question: Which FREQUENCY does the source give for CSWWARCTHQDLC here?
Answer: 1

Question: Which FREQUENCY does the source give for CSHPYRCTHQDLC here?
Answer: 2

Question: How did the FREQUENCY turn out when CSFPFKCTHQDLC was run?
Answer: 4

Question: For CSWPSRCTHQDLC, which FREQUENCY is on record?
Answer: 51

Question: CSYPWRCTHQDLC was tested. Which FREQUENCY did it give?
Answer: 1

Question: For CSLFDHCTHQDLC, which FREQUENCY is on record?
Answer: 1

Question: CSWPYRCTHQDLC was tested. Which FREQUENCY did it give?
Answer: 3

Question: With CSWSARCTHQDLC as the sequence, how does the FREQUENCY read?
Answer: 10

Question: CSFPYKCTHQDLC was tested. Which FREQUENCY did it give?
Answer: 1

Question: CSMPYRCTHQDLC was tested. Which FREQUENCY did it give?
Answer: 2

Question: CSQVVGCTHQDLC was tested. Which FREQUENCY did it give?
Answer: 1

Question: Which FREQUENCY does the source give for CSWAARCTHQDLC here?
Answer: 1

Question: Which FREQUENCY does the source give for CSWPARCTHQDLC here?
Answer: 24

Question: For CSFPIRCTHQDLC, which FREQUENCY is on record?
Answer: 1

Question: CSFLYKCTHQDLC was tested. Which FREQUENCY did it give?
Answer: 2

Question: For CSFPWRCTHQDLC, which FREQUENCY is on record?
Answer: 1

Question: CSLPIRCTHQDLC was tested. Which FREQUENCY did it give?
Answer: 1

Question: How did the FREQUENCY turn out when CSIPFKCTHQDLC was run?
Answer: 1

Question: For CSFPYRCTHQDLC, which FREQUENCY is on record?
Answer: 12

Question: Which FREQUENCY does the source give for CRFPFKCTHQDLC here?
Answer: 1
